{
  "source": "paper doi:10.1101/2022.01.18.476780",
  "binders": {"B1": {"name": "DNA 54RF (dsDNA)", "DNA 1": "TGGAGAATCCCGGTGCCGAGGCCGCTCAATTGGTCGTAGACAGCTCTAGCACCGCTTAAACGCACGTACGCGCTGTCCCCCGCGTTTTAACCGCCAAGGGGATTACTCCCTAGTCTCCAGGCCTTTGTTTGGATGCTAATATCGT", "DNA 2": "ACGATATTAGCATCCAAACAAAGGCCTGGAGACTAGGGAGTAATCCCCTTGGCGGTTAAAACGCGGGGGACAGCGCGTACGTGCGTTTAAGCGGTGCTAGAGCTGTCTACGACCAATTGAGCGGCCTCGGCACCGGGATTCTCCA"}, "B2": {"name": "DNA 62F (dsDNA)", "DNA 1": "TGGAGAATCCCGGTGCCGAGGCCGCTCAATTGGTCGTAGACAGCTCTAGCACCGCTTAAACGCACGTACGCGCTGTCCCCCGCGTTTTAACCGCCAAGGGGATTACTCCCTAGTCTCCAGGATTAGCATCCAAACAAAGTATCGT", "DNA 2": "ACGATACTTTGTTTGGATGCTAATCCTGGAGACTAGGGAGTAATCCCCTTGGCGGTTAAAACGCGGGGGACAGCGCGTACGTGCGTTTAAGCGGTGCTAGAGCTGTCTACGACCAATTGAGCGGCCTCGGCACCGGGATTCTCCA"}, "B3": {"name": "DNA 2RN (dsDNA)", "DNA 1": "TGGAGAATCCCGGTGCCGAGGCCGCTCAATTGGTCGTAGACAGCTCTAGCACCGCTTAAACGCACGTACGCATTGTAATGCAAAATTTAACCGCCAAGGGGATTACTCCCTAGTCTCCAGGCACGTGTGGTTACGAGGCTATCGT", "DNA 2": "ACGATAGCCTCGTAACCACACGTGCCTGGAGACTAGGGAGTAATCCCCTTGGCGGTTAAATTTTGCATTACAATGCGTACGTGCGTTTAAGCGGTGCTAGAGCTGTCTACGACCAATTGAGCGGCCTCGGCACCGGGATTCTCCA"}, "B4": {"name": "DNA 54RN (dsDNA)", "DNA 1": "TGGAGAATCCCGGTGCCGAGGCCGCTCAATTGGTCGTAGACAGCTCTAGCACCGCTTAAACGCACGTACGCGCTGTCCCCCGCGTTTTAACCGCCAAGGGGATTACTCCCTAGTCTCCAGGCCATTGTAATGCAAAAGCTATCGT", "DNA 2": "ACGATAGCTTTTGCATTACAATGGCCTGGAGACTAGGGAGTAATCCCCTTGGCGGTTAAAACGCGGGGGACAGCGCGTACGTGCGTTTAAGCGGTGCTAGAGCTGTCTACGACCAATTGAGCGGCCTCGGCACCGGGATTCTCCA"}, "B5": {"name": "DNA 62N (dsDNA)", "DNA 1": "TGGAGAATCCCGGTGCCGAGGCCGCTCAATTGGTCGTAGACAGCTCTAGCACCGCTTAAACGCACGTACGCGCTGTCCCCCGCGTTTTAACCGCCAAGGGGATTACTCCCTAGTCTCCAGGCACTTTTGCATTACAATGTATCGT", "DNA 2": "ACGATACATTGTAATGCAAAAGTGCCTGGAGACTAGGGAGTAATCCCCTTGGCGGTTAAAACGCGGGGGACAGCGCGTACGTGCGTTTAAGCGGTGCTAGAGCTGTCTACGACCAATTGAGCGGCCTCGGCACCGGGATTCTCCA"}, "B6": {"name": "DNA 601* (dsDNA)", "DNA 1": "B3 DNA 1 with A72G, T73C, A77C, A78C, T79C, G80C, A82G, A83C, A84G, A85T", "DNA 2": "B5 DNA 2 with C7G, A8C, T9C, G11C, T12G, A13T, T15A, G16C, A19C, A21C"}, "B7": {"name": "sDNAF (dsDNA)", "DNA 1": "GACTCTTTGTTTGGC", "DNA 2": "GCCAAACAAAGAGTC"}, "B8": {"name": "DNA 27F (dsDNA)", "DNA 1": "TGGAGAATCCCGGTGCCGAGGCCGCTCAATTGGTCGTAGACAGCTCTAGCACCGCTTAAACGCACGTACGCGCTGTCCCCCGCGTTATTAGCATCCAAACAAAGACTCCCTAGTCTCCAGGCACGTGTGGTTACGAGGCTATCGT", "DNA 2": "ACGATAGCCTCGTAACCACACGTGCCTGGAGACTAGGGAGTCTTTGTTTGGATGCTAATAACGCGGGGGACAGCGCGTACGTGCGTTTAAGCGGTGCTAGAGCTGTCTACGACCAATTGAGCGGCCTCGGCACCGGGATTCTCCA"}},
  "key": {"Sox2 HMG DBD WT [1]": {"target": "T1, Sox2 HMG DBD WT (human, UniProt P48431 39-118)", "T1 sequence (P48431 39-118)": "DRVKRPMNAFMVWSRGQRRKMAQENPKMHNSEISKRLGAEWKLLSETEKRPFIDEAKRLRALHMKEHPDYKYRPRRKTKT", "assay": "EMSA"}, "[2]": {"target": "Oct4 DBD (POUS-linker-POUHD) (UniProt Q01860 133-296)", "sequence (Q01860 133-296)": "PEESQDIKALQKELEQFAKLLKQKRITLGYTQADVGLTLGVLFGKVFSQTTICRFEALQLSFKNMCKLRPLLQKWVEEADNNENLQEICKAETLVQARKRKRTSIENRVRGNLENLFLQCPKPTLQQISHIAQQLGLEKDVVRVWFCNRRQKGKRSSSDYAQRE", "assay": "EMSA"}, "Sox2 HMG Y72A": {"target": "Sox2 HMG Y72A (human, UniProt P48431 39-118, Y108A)", "sequence (P48431 39-118 Y108A)": "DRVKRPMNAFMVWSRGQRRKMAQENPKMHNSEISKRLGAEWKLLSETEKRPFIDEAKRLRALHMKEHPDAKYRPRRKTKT", "assay": "NMR"}, "Sox2 HMG DBD WT [3]": {"target": "T1, Sox2 HMG DBD WT", "assay": "NMR"}, "Sox2 HMG DBD WT [4]": {"target": "T1, Sox2 HMG DBD WT", "assay": "NMR", "remark": "listed apart in the source"}},
  "note": "Where a chain is given by its changes, count along the chain named. Where two headings read alike, the source gives them in different places.",
  "data": [
    {"binder": "B1", "values": [
      {"measurement": "Kd", "setting": "Sox2 HMG DBD WT [1]", "result": "1.1 ± 0.2", "unit": "nM"},
      {"measurement": "Kd", "setting": "[2]", "result": "32 ± 3", "unit": "nM"}
    ]},
    {"binder": "B2", "values": [
      {"measurement": "Kd", "setting": "Sox2 HMG DBD WT [1]", "result": "2.1 ± 0.2", "unit": "nM"}
    ]},
    {"binder": "B3", "values": [
      {"measurement": "Kd", "setting": "Sox2 HMG DBD WT [1]", "result": "3.7 ± 0.5", "unit": "nM"}
    ]},
    {"binder": "B4", "values": [
      {"measurement": "Kd", "setting": "Sox2 HMG DBD WT [1]", "result": "3 ± 0.4", "unit": "nM"},
      {"measurement": "Kd", "setting": "[2]", "result": "38 ± 4", "unit": "nM"}
    ]},
    {"binder": "B5", "values": [
      {"measurement": "Kd", "setting": "Sox2 HMG DBD WT [1]", "result": "2.3 ± 0.3", "unit": "nM"}
    ]},
    {"binder": "B6", "values": [
      {"measurement": "Kd", "setting": "Sox2 HMG DBD WT [1]", "result": "8 ± 0.7", "unit": "nM"},
      {"measurement": "Kd", "setting": "[2]", "result": "160 ± 20", "unit": "nM"}
    ]},
    {"binder": "B7", "values": [
      {"measurement": "binding result", "setting": "Sox2 HMG Y72A", "result": "binds"},
      {"measurement": "binding result", "setting": "Sox2 HMG DBD WT [3]", "result": "binds"}
    ]},
    {"binder": "B8", "values": [
      {"measurement": "binding result", "setting": "Sox2 HMG DBD WT [4]", "result": "binds"}
    ]}
  ]
}
